Test results taken from FireProtDB (doi:10.1021/bi100877y).

Conditions: Escherichia coli (strain K12); pH 7; Thermal; DSC; phosphate 50 mM; whole UniProt chain shown

B1: Outer membrane porin C wild type, P06996 (protein)
chain: MKVKVLSLLVPALLVAGAANAAEVYNKDGNKLDLYGKVDGLHYFSDNKDVDGDQTYMRLGFKGETQVTDQLTGYGQWEYQIQGNSAENENNSWTRVAFAGLKFQDVGSFDYGRNYGVVYDVTSWTDVLPEFGGDTYGSDNFMQQRGNGFATYRNTDFFGLVDGLNFAVQYQGKNGNPSGEGFTSGVTNNGRDALRQNGDGVGGSITYDYEGFGIGGAISSSKRTDAQNTAAYIGNGDRAETYTGGLKYDANNIYLAAQYTQTYNATRVGSLGWANKAQNFEAVAQYQFDFGLRPSLAYLQSKGKNLGRGYDDEDILKYVDVGATYYFNKNMSTYVDYKINLLDDNQFTRDAGINTDNIVALGLVYQF
  Tm: 87 °C
  unfolding enthalpy (calorimetric): 328 kcal/mol
